Source: patent US20250320281A1

How the values were obtained:
Assay in all cases: cell-based or functional assay
[1] = biological target: HIV-1 Env of isolate MGRM-A-006 (pseudovirus) (HIV-1)
[2] = biological target: HIV-1 Env of isolate MGRM-A-001 (pseudovirus) (HIV-1)
[3] = biological target: HIV-1 Env of isolate MGRM-A-005 (pseudovirus) (HIV-1)
[4] = biological target: HIV-1 Env of isolate 93WR029 (pseudovirus) (HIV-1)
[5] = biological target: HIV-1 Env of isolate 92WR021 (pseudovirus) (HIV-1)
[6] = biological target: HIV-1 Env of isolate MGRM-A-010 (pseudovirus) (HIV-1)
[7] = biological target: HIV-1 Env of isolate MGRM-A-011 (pseudovirus) (HIV-1)
[8] = biological target: HIV-1 Env of isolate 94UG103 (pseudovirus) (HIV-1)
[9] = biological target: HIV-1 Env of isolate 92TH021 (pseudovirus) (HIV-1)
[10] = biological target: HIV-1 Env of isolate MGRM-A-004 (pseudovirus) (HIV-1)
[11] = biological target: HIV-1 Env of isolate 94KE105 (pseudovirus) (HIV-1)
[12] = biological target: HIV-1 Env of isolate MGRM-AE-001 (pseudovirus) (HIV-1)
[13] = biological target: HIV-1 Env of isolate 92UG037 (pseudovirus) (HIV-1)
[14] = biological target: HIV-1 Env of isolate MGRM-A-012 (pseudovirus) (HIV-1)
[15] = biological target: HIV-1 Env of isolate MGRM-A-009 (pseudovirus) (HIV-1)
[16] = biological target: HIV-1 Env of isolate MGRM-A-007 (pseudovirus) (HIV-1)
[17] = biological target: HIV-1 Env of isolate 92WR020 (pseudovirus) (HIV-1)
[18] = biological target: HIV-1 Env of isolate MGRM-A-002 (pseudovirus) (HIV-1)
[19] = biological target: HIV-1 Env of isolate MGRM-A-014 (pseudovirus) (HIV-1)
[20] = biological target: HIV-1 Env of isolate MGRM-AE-003 (pseudovirus) (HIV-1)
[21] = biological target: HIV-1 Env of isolate 92WR009 (pseudovirus) (HIV-1)
[22] = biological target: HIV-1 Env of isolate MGRM-A-003 (pseudovirus) (HIV-1)
[23] = biological target: HIV-1 Env of isolate MGRM-A-008 (pseudovirus) (HIV-1)
[24] = biological target: HIV-1 Env of isolate 92RW008 (pseudovirus) (HIV-1)
[25] = biological target: HIV-1 Env of isolate 93UG077 (pseudovirus) (HIV-1)
[26] = biological target: HIV-1 Env of isolate 92WR026 (pseudovirus) (HIV-1)
[27] = biological target: HIV-1 Env of isolate 92WR024 (pseudovirus) (HIV-1)
[28] = biological target: HIV-1 Env of isolate MGRM-A-013 (pseudovirus) (HIV-1)
[29] = biological target: HIV-1 Env of isolate MGRM-AE-002 (pseudovirus) (HIV-1)
[30] = biological target: HIV-1 Env of isolate VLGCA1 (pseudovirus) (HIV-1)
[31] = biological target: HIV-1 Env of isolate 92UG031 (pseudovirus) (HIV-1)
[32] = biological target: HIV-1 Env of isolate CMU02 (pseudovirus) (HIV-1)
[33] = biological target: HIV-1 Env of isolate 92BR020 (clade B) on pseudovirus (HIV-1)
[34] = biological target: HIV-1 Env of isolate 93IN905 (clade C) on pseudovirus (HIV-1)
[35] = biological target: HIV-1 Env of isolate MGRM-D-001 (clade D) on pseudovirus (HIV-1)
[36] = biological target: HIV-1 Env of isolate JRFL (clade B) on pseudovirus (HIV-1)
[37] = biological target: HIV-1 Env of isolate 94UG103 (clade A) on pseudovirus (HIV-1)
[38] = biological target: HIV-1 Env of isolate MGRM-D-018 (clade D) on pseudovirus (HIV-1)
[39] = biological target: HIV-1 Env of isolate JRCSF (clade B) on pseudovirus (HIV-1) (UniProt P20871)
[40] = biological target: HIV-1 Env of isolate MGRM-C-027 (clade C) on pseudovirus (HIV-1)
[41] = biological target: HIV-1 Env of isolate APV17 (clade B) on pseudovirus (HIV-1)
[42] = biological target: HIV-1 Env of isolate 92RW020 (clade A) on pseudovirus (HIV-1)
[43] = biological target: HIV-1 Env of isolate MGRM-C-026 (clade C) on pseudovirus (HIV-1)
[44] = biological target: HIV-1 Env of isolate APV6 (clade B) on pseudovirus (HIV-1)
[45] = biological target: HIV-1 Env of isolate APV13 (clade B) on pseudovirus (HIV-1)
[46] = biological target: HIV-1 Env of isolate 93UG077 (clade A) on pseudovirus (HIV-1)

PGT-121 (4838_L06; 4873_E03) (antibody)
IC50 (µg/mL), pseudovirus neutralization [1]: 0.396 µg/mL
IC50 (µg/mL), pseudovirus neutralization [2]: > 50 µg/mL
IC50 (µg/mL), pseudovirus neutralization [3]: > 50 µg/mL
IC50 (µg/mL), pseudovirus neutralization [4]: > 50 µg/mL
IC50 (µg/mL), pseudovirus neutralization [5]: 0.009 µg/mL
IC50 (µg/mL), pseudovirus neutralization [6]: 2.44 µg/mL
IC50 (µg/mL), pseudovirus neutralization [7]: > 50 µg/mL
IC50 (µg/mL), pseudovirus neutralization [8]: 2.52 µg/mL
IC50 (µg/mL), pseudovirus neutralization [9]: > 50 µg/mL
IC50 (µg/mL), pseudovirus neutralization [10]: > 50 µg/mL
IC50 (µg/mL), pseudovirus neutralization [11]: 0.029 µg/mL
IC50 (µg/mL), pseudovirus neutralization [12]: > 50 µg/mL
IC50 (µg/mL), pseudovirus neutralization [13]: 0.031 µg/mL
IC50 (µg/mL), pseudovirus neutralization [14]: 0.092 µg/mL
IC50 (µg/mL), pseudovirus neutralization [15]: 0.006 µg/mL
IC50 (µg/mL), pseudovirus neutralization [16]: > 50 µg/mL
IC50 (µg/mL), pseudovirus neutralization [17]: 0.004 µg/mL
IC50 (µg/mL), pseudovirus neutralization [18]: 0.013 µg/mL
IC50 (µg/mL), pseudovirus neutralization [19]: 0.003 µg/mL
IC50 (µg/mL), pseudovirus neutralization [20]: > 50 µg/mL
IC50 (µg/mL), pseudovirus neutralization [21]: 1.74 µg/mL
IC50 (µg/mL), pseudovirus neutralization [22]: 0.435 µg/mL
IC50 (µg/mL), pseudovirus neutralization [23]: > 50 µg/mL
IC50 (µg/mL), pseudovirus neutralization [24]: 0.003 µg/mL
IC50 (µg/mL), pseudovirus neutralization [25]: 0.019 µg/mL
IC50 (µg/mL), pseudovirus neutralization [26]: 0.014 µg/mL
IC50 (µg/mL), pseudovirus neutralization [27]: > 50 µg/mL
IC50 (µg/mL), pseudovirus neutralization [28]: 0.387 µg/mL
IC50 (µg/mL), pseudovirus neutralization [29]: > 50 µg/mL
IC50 (µg/mL), pseudovirus neutralization [30]: > 50 µg/mL
IC50 (µg/mL), pseudovirus neutralization [31]: > 50 µg/mL
IC50 (µg/mL), pseudovirus neutralization [32]: > 50 µg/mL

PGT-121 (4838_L06; 4873_E03) human monoclonal anti-HIV antibody
IC80 (pseudovirus neutralization) [33]: 0.0532 µg/mL
IC90 (pseudovirus neutralization) [33]: 0.101 µg/mL
IC80 (pseudovirus neutralization) [34]: 0.0302 µg/mL
IC90 (pseudovirus neutralization) [34]: 0.0645 µg/mL
IC80 (pseudovirus neutralization) [35]: 3.29 µg/mL
IC90 (pseudovirus neutralization) [35]: 6.26 µg/mL
IC95 (pseudovirus neutralization) [35]: 9.39 µg/mL
IC80 (pseudovirus neutralization) [36]: 0.0806 µg/mL
IC90 (pseudovirus neutralization) [36]: 0.151 µg/mL
IC95 (pseudovirus neutralization) [36]: 0.267 µg/mL
IC80 (pseudovirus neutralization) [37]: 8.85 µg/mL
IC80 (pseudovirus neutralization) [38]: 0.0231 µg/mL
IC90 (pseudovirus neutralization) [38]: 0.0414 µg/mL
IC95 (pseudovirus neutralization) [38]: 0.0715 µg/mL
IC90 (pseudovirus neutralization) [39]: 0.223 µg/mL
IC95 (pseudovirus neutralization) [39]: 0.417 µg/mL
IC80 (pseudovirus neutralization) [40]: 0.0829 µg/mL
IC90 (pseudovirus neutralization) [40]: 0.374 µg/mL
IC95 (pseudovirus neutralization) [40]: 3.14 µg/mL
IC80 (pseudovirus neutralization) [41]: 0.371 µg/mL
IC90 (pseudovirus neutralization) [41]: 0.799 µg/mL
IC95 (pseudovirus neutralization) [41]: 1.55 µg/mL
IC80 (pseudovirus neutralization) [42]: 0.0188 µg/mL
IC90 (pseudovirus neutralization) [42]: 0.0361 µg/mL
IC95 (pseudovirus neutralization) [42]: 0.0671 µg/mL
IC95 (pseudovirus neutralization) [43]: 0.0687 µg/mL
IC80 (pseudovirus neutralization) [44]: 0.145 µg/mL
IC95 (pseudovirus neutralization) [44]: 0.569 µg/mL
IC80 (pseudovirus neutralization) [45]: 1.31 µg/mL
IC90 (pseudovirus neutralization) [45]: 2.8 µg/mL
IC95 (pseudovirus neutralization) [45]: 5.15 µg/mL
IC90 (pseudovirus neutralization) [46]: 0.369 µg/mL
IC95 (pseudovirus neutralization) [46]: 0.74 µg/mL

PGT-122 (4877_D15) (antibody)
IC50 (µg/mL), pseudovirus neutralization [1]: > 50 µg/mL
IC50 (µg/mL), pseudovirus neutralization [2]: > 50 µg/mL
IC50 (µg/mL), pseudovirus neutralization [3]: > 50 µg/mL
IC50 (µg/mL), pseudovirus neutralization [4]: > 50 µg/mL
IC50 (µg/mL), pseudovirus neutralization [5]: 0.021 µg/mL
IC50 (µg/mL), pseudovirus neutralization [6]: 2.51 µg/mL
IC50 (µg/mL), pseudovirus neutralization [7]: > 50 µg/mL
IC50 (µg/mL), pseudovirus neutralization [8]: 2.04 µg/mL
IC50 (µg/mL), pseudovirus neutralization [9]: > 50 µg/mL
IC50 (µg/mL), pseudovirus neutralization [10]: > 50 µg/mL
IC50 (µg/mL), pseudovirus neutralization [11]: 0.056 µg/mL
IC50 (µg/mL), pseudovirus neutralization [12]: > 50 µg/mL
IC50 (µg/mL), pseudovirus neutralization [13]: 0.068 µg/mL
IC50 (µg/mL), pseudovirus neutralization [14]: 0.257 µg/mL
IC50 (µg/mL), pseudovirus neutralization [15]: 0.012 µg/mL
IC50 (µg/mL), pseudovirus neutralization [16]: > 50 µg/mL
IC50 (µg/mL), pseudovirus neutralization [17]: 0.009 µg/mL
IC50 (µg/mL), pseudovirus neutralization [18]: 0.017 µg/mL
IC50 (µg/mL), pseudovirus neutralization [19]: 0.007 µg/mL
IC50 (µg/mL), pseudovirus neutralization [20]: > 50 µg/mL
IC50 (µg/mL), pseudovirus neutralization [21]: 42.4 µg/mL
IC50 (µg/mL), pseudovirus neutralization [22]: 3.79 µg/mL
IC50 (µg/mL), pseudovirus neutralization [23]: > 50 µg/mL
IC50 (µg/mL), pseudovirus neutralization [24]: 0.003 µg/mL
IC50 (µg/mL), pseudovirus neutralization [25]: 0.084 µg/mL
IC50 (µg/mL), pseudovirus neutralization [26]: 0.036 µg/mL
IC50 (µg/mL), pseudovirus neutralization [27]: > 50 µg/mL
IC50 (µg/mL), pseudovirus neutralization [28]: 2.47 µg/mL
IC50 (µg/mL), pseudovirus neutralization [29]: > 50 µg/mL
IC50 (µg/mL), pseudovirus neutralization [30]: > 50 µg/mL
IC50 (µg/mL), pseudovirus neutralization [31]: > 50 µg/mL
IC50 (µg/mL), pseudovirus neutralization [32]: > 50 µg/mL
